From the RNAGym collection of RNA variant scans (doi:10.1093/molbev/msab373)

B1: Azoarcus group I ribozyme (parent)
chain: GUGCCUUGCGCCGGGAAACCACGCAAGGGAUGGUGUCAAAUUCGGCGAAACCUAAGCGCCCGCCCGGGCGUAUGGCAACGCCGAGCCAAGCUUCGGCGCCUGCGCCGAUGAAGGUGUAGAGACUAGACGGCACCCACCUAAGGCAAACGCUAUGGUGAAGGCAUAGUCCAGGGAGUGGCGAAAGUCACACAAACCGG

Variants of: B1
Experiment: reverse-splicing fitness (ratio to wild type); higher = more active; in vitro selection; Mg2+ level not given
Method in brief: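 An in vitro group I ribozyme library with randomized positions was T7-transcribed and gel-purified. In triplicate, 10 pmol RNA in EPPS pH 7.5 was reacted with 50 pmoles of a 30-nt RNA substrate for 1 h at 37 °C across several added MgCl2 levels (1–48 mM), then stopped with EDTA. Products were reverse transcribed from a substrate-complementary primer, PCR-amplified and sequenced (HiSeq 4000). Fitness is a variant's read proportion after selection over that before, normalised to wild type.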
GUGCCUUGCGCCGGGAAACCACGCAAGGGAUGGUGUCAAAUUCGGCGAAACCUAAGCGCCCGCCCGGGCGUAUGGCAACGCCGAGCCAAGCUUCGGCGCCUGCGCCGAUGGAGGUGUAGAGACUAGACGGCACCCACCUAAGGCUAACGGUAUGGUGAAGGCAUAGUCCAGGGAGAGGCGAAAGUCACACAAACCGG showed a reverse-splicing fitness of 0.17. For GUGCCUUGCGCCGGGAAACCACGCAAGGGAUGGUGUCAAAUUCGGCGAAACCUAAGCGCCCGCCCGGGCGUAUGGCAACGCCGAGCCAAGCUUCGGCGCCUGCGCCGAUGGAGGUGUAGAGACUAGACGGCACCCACCUAAGGCUAACGGUAUGGUGAAGGCAUAGUCCAGGGAGGGGCGAAAGUCACACAAACCGG, the reverse-splicing fitness was 0.0305. For GUGCCUUGCGCCGGGAAACCACGCAAGGGAUGGUGUCAAAUUCGGCGAAACCUAAGCGCCCGCCCGGGCGUAUGGCAACGCCGAGCCAAGCUUCGGCGCCUGCGCCGAUGGAGGUGUAGAGACUAGACGGCACCCACCUAAGGCUAACGGUAUGGUGAAGGCAUAGUCCAGGGAGCGGCGAAAGUCACACAAACCGG, the reverse-splicing fitness was 0.226. GUGCCUUGCGCCGGGAAACCACGCAAGGGAUGGUGUCAAAUUCGGCGAAACCUAAGCGCCCGCCCGGGCGUAUGGCAACGCCGAGCCAAGCUUCGGCGCCUGCGCCGAUGGAGGUGUAGAGACUAGACGGCACCCACCUAAGGCUAACGGUAUGGUGAAGGCAUAGUCUAGGGAGUGGCGAAAGUCACACAAACCGG showed a reverse-splicing fitness of 0.0229. Work on GUGCCUUGCGCCGGGAAACCACGCAAGGGAUGGUGUCAAAUUCGGCGAAACCUAAGCGCCCGCCCGGGCGUAUGGCAACGCCGAGCCAAGCUUCGGCGCCUGCGCCGAUGGAGGUGUAGAGACUAGACGGCACCCACCUAAGGCUAACGGUAUGGUGAAGGCAUAGUCGAGGGAGUGGCGAAAGUCACACAAACCGG yielded a reverse-splicing fitness of 0.0152. With GUGCCUUGCGCCGGGAAACCACGCAAGGGAUGGUGUCAAAUUCGGCGAAACCUAAGCGCCCGCCCGGGCGUAUGGCAACGCCGAGCCAAGCUUCGGCGCCUGCGCCGAUGGAGGUGUAGAGACUAGACGGCACCCACCUAAGGCUAACGGUAUGGUGAAGGCAUAGUCAAGGGAGUGGCGAAAGUCACACAAACCGG the reverse-splicing fitness was 0.0108. Variant GUGCCUUGCGCCGGGAAACCACGCAAGGGAUGGUGUCAAAUUCGGCGAAACCUAAGCGCCCGCCCGGGCGUAUGGCAACGCCGAGCCAAGCUUCGGCGCCUGCGCCGAUGGAGGUGUAGAGACUAGACGGCACCCACCUAAGGCUAACGAUAUGGUGAAGGCAUAGUCCAGGGAGGGGCGAAAGUCACACAAACCGG has a reverse-splicing fitness of 0.121. GUGCCUUGCGCCGGGAAACCACGCAAGGGAUGGUGUCAAAUUCGGCGAAACCUAAGCGCCCGCCCGGGCGUAUGGCAACGCCGAGCCAAGCUUCGGCGCCUGCGCCGAUGGAGGUGUAGAGACUAGACGGCACCCACCUAAGGCUAACGAUAUGGUGAAGGCAUAGUCCAGGGAGCGGCGAAAGUCACACAAACCGG showed a reverse-splicing fitness of 0.237. Work on GUGCCUUGCGCCGGGAAACCACGCAAGGGAUGGUGUCAAAUUCGGCGAAACCUAAGCGCCCGCCCGGGCGUAUGGCAACGCCGAGCCAAGCUUCGGCGCCUGCGCCGAUGGAGGUGUAGAGACUAGACGGCACCCACCUAAGGCUAACGAUAUGGUGAAGGCAUAGUCCAGGGAGAGGCGAAAGUCACACAAACCGG yielded a reverse-splicing fitness of 0.224. Variant GUGCCUUGCGCCGGGAAACCACGCAAGGGAUGGUGUCAAAUUCGGCGAAACCUAAGCGCCCGCCCGGGCGUAUGGCAACGCCGAGCCAAGCUUCGGCGCCUGCGCCGAUGGAGGUGUAGAGACUAGACGGCACCCACCUAAGGCUAACGGUAUGGUGAAGGCAUAGUCUAGGGAGGGGCGAAAGUCACACAAACCGG has a reverse-splicing fitness of 0.00488. For GUGCCUUGCGCCGGGAAACCACGCAAGGGAUGGUGUCAAAUUCGGCGAAACCUAAGCGCCCGCCCGGGCGUAUGGCAACGCCGAGCCAAGCUUCGGCGCCUGCGCCGAUGGAGGUGUAGAGACUAGACGGCACCCACCUAAGGCUAACGGUAUGGUGAAGGCAUAGUCUAGGGAGCGGCGAAAGUCACACAAACCGG, the reverse-splicing fitness was 0.0148. With GUGCCUUGCGCCGGGAAACCACGCAAGGGAUGGUGUCAAAUUCGGCGAAACCUAAGCGCCCGCCCGGGCGUAUGGCAACGCCGAGCCAAGCUUCGGCGCCUGCGCCGAUGGAGGUGUAGAGACUAGACGGCACCCACCUAAGGCUAACGGUAUGGUGAAGGCAUAGUCUAGGGAGAGGCGAAAGUCACACAAACCGG the reverse-splicing fitness was 0.00751. Work on GUGCCUUGCGCCGGGAAACCACGCAAGGGAUGGUGUCAAAUUCGGCGAAACCUAAGCGCCCGCCCGGGCGUAUGGCAACGCCGAGCCAAGCUUCGGCGCCUGCGCCGAUGGAGGUGUAGAGACUAGACGGCACCCACCUAAGGCUAACGAUAUGGUGAAGGCAUAGUCUAGGGAGGGGCGAAAGUCACACAAACCGG yielded a reverse-splicing fitness of 0.00519. GUGCCUUGCGCCGGGAAACCACGCAAGGGAUGGUGUCAAAUUCGGCGAAACCUAAGCGCCCGCCCGGGCGUAUGGCAACGCCGAGCCAAGCUUCGGCGCCUGCGCCGAUGGAGGUGUAGAGACUAGACGGCACCCACCUAAGGCUAACGUUAUGGUGAAGGCAUAGUCCAGGGAGUGGCGAAAGUCACACAAACCGG gave a reverse-splicing fitness of 0.952. GUGCCUUGCGCCGGGAAACCACGCAAGGGAUGGUGUCAAAUUCGGCGAAACCUAAGCGCCCGCCCGGGCGUAUGGCAACGCCGAGCCAAGCUUCGGCGCCUGCGCCGAUGGAGGUGUAGAGACUAGACGGCACCCACCUAAGGCUAACGGUAUGGUGAAGGCAUAGUCCAGGGAGUGGCGAAAGUCACACAAACCGG gave a reverse-splicing fitness of 0.449.
